Measurements taken from patent US20100285583A1, “COMPOUNDS AND METHODS FOR INHIBITING PLATELET AGGREGATION” (priority 2009, published 2010).

Experiment: CD spectroscopy, secondary structure composition
Assay type: physicochemical
Details: 5 μM construct, DICHROWEB/CDSSTR
Experimental: Spectra were collected using a Jasco J-720 spectropolarimeter. Far-UV CD spectra were measured for Dab2 PTB constructs (5 μM in 5 mM Tris, 100 mM potassium fluoride, 100 μM DTT, pH 6.8) using a 1 mm-slit-width cuvette. Five accumulated scans were recorded for each sample between 190 and 260 nm at 20° C. in increments of 0.5 nm. Background of buffer alone was subtracted from each spectrum. Raw data were converted to mean residue ellipticity and analyzed for secondary structure composition using DICHROWEB and deconvoluted using CDSSTR.

B1: N-PTB: N-terminal phosphotyrosine binding domain (residues 1-241) of human Disabled-2 (Dab2), expressed as GST-fusion in E. coli (protein)
chain: MSNEVETSATNGQPDQQAAPKAPSKKEKKKGPEKTDEYLLARFKGDGVKYKAKLIGIDDVPDARGDKMSQDSMMKLKGMAARGRSQGQHKQRIWVNISLSGIKIIDEKTGVIEHEHPVNKISFIARDVTDNRAFGYVCGGEGQHQFFAIKTGQQAEPLVVDLKDLFQVIYNVKKKEEEKKKIEEASKAVENGSEALMILDDQTNKLKSGVDQMDLFGDMSTPPDLNSPTESKDILLVDLNS
Helix 1: 8%
Helix 2: 10%
Strand 1: 17%
Strand 2: 10%
Turns: 23%
Unordered: 31%
